± gives the standard error.
B1: library; numbered along this chain (parent)
chain: MATDAALRRLLRLHRTEIAVAVDSAFPLLHALADHDVVPEDKFQETLHLKEKEGCPQAFHALLSWLLTQDSTAILDFWRVLFKDYNLERYGRLQPILDSFPKDVDLSQPRKGRKPPAVPKALVPPPRLPTKRKASEEARAAAPAALTPRGTASPGSQLKAKPPKKPESSAEQQRLPLGNGIQTMSASVQRAVAMSSGDVPGARGAVEGILIQQVFESGGSKKCIQVGGEFYTPSKFEDSGSGKNKARSSSGPKPLVRAKGAQGAAPGGGEARLGQQGSVPAPLALPSDPQLHQKNEDECAVCRDGGELICCDGCPRAFHLACLSPPLREIPSGTWRCSSCLQATVQEVQPRAEEPRPQEPPVETPLPPGLRSAGEEVRGPPGEPLAGMDTTLVYKHLPAPPSAAPLPGLDSSALHPLLCVGPEGQQNLAPGARCGVCGDGTDVLRCTHCAAAFHWRCHFPAGTSRPGTGLRCRSCSGDVTPAPVEGVLAPSPARLAPGPAKDDTASHEPALHRDDLESLLSEHTFDGILQWAIQSMARPAAPFPS

Variants of: B1
Test: AIRE transcriptional activation functional score (insulin promoter-GFP; nonsense median 0, synonymous median 1) (normalised score); higher = higher AIRE activity (more reporter activation)
Settings: with insulin promoter-GFP reporter in HEK293
Method: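 Deep mutational scan of full-length human AIRE (codon-optimized cDNA, DT-POPCode NNN libraries over three regions) integrated at a Bxb1 landing pad in HEK293 cells carrying an insulin core promoter-GFP reporter at a Flp-In site. Cells were sorted for the top 10% GFP about 14 days after transfection. Variant frequency log-ratios (select vs non-select, TileSeq) were rescaled so that the nonsense median is 0 and the synonymous median is 1, then averaged over biological replicates.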

AIRE transcriptional activation functional score of substitutions, site by site:
T16: F -0.112 ± 0.16; Y 0.309 ± 0.36; K -0.208 ± 0.32; R -0.0166 ± 0.31; M 0.203 ± 0.12; W -0.366 ± 0.048; G 0.0399 ± 0.37; P -0.109 ± 0.47; C 0.227 ± 0.26; N 0.597 ± 0.079; A -0.419 ± 0.84; I -0.0145 ± 0.17; L -0.113 ± 0.4; H -0.704 ± 0.84; V 0.0381 ± 0.39; S -0.287 ± 0.29; E 1.64 ± 0.14; Q -0.475 ± 0.078; D -0.128 ± 0.45
A6: D 1.01 ± 1.3; I 0.395 ± 0.37; Y 2.12 ± 1.1; P 0.153 ± 0.34; L 1.45 ± 0.73; S 0.223 ± 0.61; M 0.372 ± 0.17; N -0.00395 ± 0.93; C 0.756 ± 0.3; E 1.37 ± 0.1; Q 1.03 ± 0.075; F 1.43 ± 0.77; W 0.676 ± 0.14; V 0.772 ± 0.51; R 0.648 ± 0.17; T 0.643 ± 0.46; H 0.532 ± 0.11; G 1.2 ± 0.27
L7: I 0.982 ± 0.18; D -0.451 ± 0.08; G -0.106 ± 0.71; C -1 ± 0.98; N -0.876 ± 0.22; W 0.0852 ± 0.06; T 1.26 ± 0.37; K -0.0956 ± 0.16; F -0.323 ± 0.33; A -0.112 ± 0.16; V -0.199 ± 0.32; S 0.248 ± 0.41; Y 0.122 ± 0.12; R 0.0717 ± 0.84; Q 0.381 ± 0.63; P 0.0964 ± 0.66; H 0.927 ± 0.78; M 0.507 ± 0.28
L11: C -0.106 ± 0.11; T -0.0406 ± 0.65; F 0.127 ± 0.061; D 0.606 ± 0.6; M 0.0247 ± 0.081; G -0.259 ± 0.73; I 0.208 ± 0.44; S 0.17 ± 0.34; K 0.379 ± 0.093; W 0.256 ± 0.083; H -0.271 ± 0.11; V 0.213 ± 0.5; E -0.17 ± 0.24; R 0.101 ± 0.38; Q 0.602 ± 0.51; Y -0.339 ± 0.4; A -0.709 ± 0.55; N 0.0103 ± 0.076; P 0.466 ± 0.29
A2: V -0.0464 ± 0.12; E 1.14 ± 0.08; S 1.27 ± 0.12; P 1.55 ± 0.37; G 0.545 ± 0.1; T 0.369 ± 0.19
R8: K 0.485 ± 0.11; I 0.433 ± 0.29; A -0.421 ± 0.42; P -0.196 ± 0.54; C 0.131 ± 0.12; Q -1.39 ± 0.14; Y -0.316 ± 0.91; E -0.344 ± 0.079; G -0.0812 ± 0.54; N -0.26 ± 0.14; F -0.127 ± 0.28; V -0.0144 ± 0.31; T -0.0815 ± 0.38; W -0.126 ± 0.086; H -0.286 ± 0.2; S 0.281 ± 0.48; L -0.0603 ± 0.58; D 0.401 ± 0.51
D4: G 0.166 ± 0.2; W 0.262 ± 0.053; N 0.245 ± 0.27; E 1.26 ± 0.14; F 0.414 ± 0.23; H -0.661 ± 0.68; A 0.529 ± 0.99; S 0.199 ± 0.46; T -0.494 ± 0.11; C 0.509 ± 0.18; R -0.235 ± 0.59; L 0.0531 ± 0.29; Y 0.616 ± 0.39; V 0.202 ± 0.24; P -0.0888 ± 0.36; I 0.179 ± 1; Q -3.53 ± 0.6
E17: K 0.389 ± 0.19; H 0.241 ± 1; A 0.78 ± 0.58; Q -0.406 ± 0.85; F -0.224 ± 0.25; L 0.113 ± 0.36; C -0.595 ± 0.37; P -0.151 ± 0.34; Y -0.411 ± 0.17; W -0.29 ± 0.14; D 1.42 ± 0.72; R -0.438 ± 0.75; N -0.662 ± 0.64; V 0.0123 ± 0.26; G -0.233 ± 0.71; T 0.383 ± 0.71; M 0.896 ± 0.27; S -0.0199 ± 0.23; I -0.454 ± 0.54
T3: V 0.465 ± 0.14; K 1.31 ± 0.12; W 2.08 ± 0.48; L 1.26 ± 0.31; M 1.74 ± 0.052; R 1.18 ± 0.6; N 0.808 ± 0.74; P -0.0536 ± 0.46; G 0.0107 ± 0.19; S 0.972 ± 0.75; I -0.128 ± 0.25; A 1.09 ± 0.56; E -0.211 ± 0.065
I18: L 0.304 ± 0.57; S 0.138 ± 0.48; F 0.0176 ± 0.2; T -0.194 ± 0.67; N -0.247 ± 0.45; W 0.00284 ± 0.15; P -0.146 ± 0.3; Q -0.126 ± 0.07; A -0.708 ± 0.62; M 0.409 ± 0.13; D 0.751 ± 0.068; Y -0.479 ± 0.28; V -0.092 ± 0.32; K 0.219 ± 0.83; C -0.426 ± 0.095; R 0.483 ± 0.28; H 0.614 ± 0.35; E 0.682 ± 0.3; G 0.378 ± 0.28
R9: I 0.0495 ± 0.27; M 0.633 ± 0.12; D 0.539 ± 0.48; S 1.39 ± 0.75; Y 0.868 ± 1.2; H 0.195 ± 0.13; G 0.856 ± 0.66; V 0.133 ± 0.31; F -0.124 ± 0.19; P 0.671 ± 0.54; C -0.35 ± 0.18; L 0.268 ± 0.39; W 0.515 ± 0.082; Q 1.13 ± 0.62; A 1.09 ± 0.34; N 1.38 ± 0.35; K -2.37 ± 0.13; E -0.057 ± 0.29; T 0.253 ± 0.34
L13: H 0.357 ± 0.16; M 1.23 ± 0.27; W 0.425 ± 0.079; S -0.217 ± 0.59; T 0.418 ± 0.36; D -0.291 ± 1.1; N -0.209 ± 0.12; A 0.273 ± 0.21; R 1.36 ± 0.45; Y 1.42 ± 0.61; E 0.79 ± 0.053; Q 0.368 ± 0.3; I 0.695 ± 0.26; G -0.0939 ± 0.53; F 1.11 ± 0.37; C 0.26 ± 0.64; V 0.593 ± 0.48; P 0.275 ± 0.3
V20: M 0.622 ± 0.34; R -0.283 ± 0.69; A -0.889 ± 0.64; I 1.31 ± 0.54; T 0.0422 ± 0.34; E -1.26 ± 0.12; S -0.474 ± 0.42; Y 0.662 ± 0.42; N -0.0183 ± 0.18; F 0.146 ± 0.077; K -0.579 ± 0.17; G -0.208 ± 0.36; C -0.981 ± 0.093; L 0.278 ± 0.32; H -0.433 ± 0.067; W 0.633 ± 0.12; Q -0.25 ± 0.26; D 0.0604 ± 0.26; P 0.184 ± 0.63
A21: D -0.73 ± 0.38; C 0.675 ± 0.39; E 0.657 ± 0.37; F -0.0679 ± 0.18
A5: H 0.534 ± 0.3; P 0.767 ± 0.54; E 1.41 ± 0.12; L 1 ± 0.51; R 1.72 ± 0.62; G 0.74 ± 0.35; Y 0.397 ± 0.37; D 0.947 ± 0.62; C 1.17 ± 0.35; M 0.955 ± 0.1; T 1.04 ± 0.38; Q 0.782 ± 0.05; F 0.709 ± 0.23; N 0.61 ± 0.13; V 1.45 ± 0.2; W 0.849 ± 0.1; I 1.2 ± 0.62; S 1.24 ± 0.36
H14: D -0.577 ± 0.094; C -0.236 ± 0.35; F 0.561 ± 0.32; Q 0.144 ± 0.28; V -0.238 ± 0.39; T 0.312 ± 0.1; G 0.338 ± 0.25; M -0.84 ± 0.27; N 1.68 ± 0.1; S 0.00226 ± 0.49; L -0.153 ± 0.31; E -1.27 ± 0.55; P -0.256 ± 0.64; Y 0.888 ± 0.31; W 0.335 ± 0.094; A -0.0434 ± 0.09; I -0.18 ± 0.47; R -0.348 ± 0.51
R12: W -0.0189 ± 0.097; C -0.448 ± 0.53; H -0.211 ± 0.16; I -0.464 ± 0.25; L 0.419 ± 0.69; M 0.457 ± 0.063; Q -1.11 ± 0.89; E -0.463 ± 0.9; G 0.415 ± 0.41; K 1.84 ± 0.66; V 0.442 ± 0.52; P 0.187 ± 0.17; Y -0.191 ± 0.23; A -0.914 ± 0.56; S -0.0905 ± 0.47; D -0.77 ± 0.14; T -0.393 ± 0.21; F -0.626 ± 0.18
R15: H -0.146 ± 0.19; T 0.316 ± 0.23; Y -0.904 ± 0.22; Q 0.45 ± 0.067; I 0.486 ± 0.75; L 0.37 ± 0.32; D 0.279 ± 0.29; G -0.349 ± 0.32; F 0.0396 ± 0.61; V 0.0544 ± 0.6; S -0.0525 ± 0.75; M 0.112 ± 0.11; A -0.222 ± 0.32; P -0.373 ± 1; W 0.0452 ± 0.059; C -0.257 ± 0.17; K -1.95 ± 0.17
L10: V -0.151 ± 0.34; W -0.175 ± 0.14; T 0.145 ± 0.36; D 0.416 ± 0.19; N -0.218 ± 0.44; R 0.701 ± 0.58; M 0.438 ± 0.057; E -0.413 ± 0.3; A -0.0675 ± 0.18; F 0.827 ± 0.25; Q -0.766 ± 0.54; Y 1.01 ± 0.24; P 0.292 ± 0.34; I 0.238 ± 0.76; H 1.75 ± 0.32; K -1.76 ± 0.75; G -0.12 ± 0.14; S -0.035 ± 0.35; C -0.25 ± 0.31
A19: C 0.605 ± 0.3; S 0.921 ± 0.61; F 0.0254 ± 0.21; D 0.412 ± 0.59; Y -2.2 ± 0.58; H 0.194 ± 0.27; R 0.348 ± 0.55; Q -1.03 ± 0.17; P -0.228 ± 0.44; M 1.9 ± 0.1; I -0.333 ± 0.57; K 0.838 ± 1.1; G 0.563 ± 0.33; V -0.0384 ± 0.33; L 0.0523 ± 0.27; T -0.102 ± 0.31; E 0.513 ± 0.43; W -0.29 ± 0.099

— the supplement of paper PMC12667976
